Drawing on the RNAGym collection of RNA variant scans (doi:10.7554/elife.80360), this text covers self-cleavage for 167 variants.

The labels stand for the following.
B1: Hammerhead Ribozyme (parent)
chain: ACCGGAUGUGCUUUCCGGUCUGAUGAGUCCGUGAGGACGAAACAG

In this data set the parent is B1. The data set can be described thus: self-cleavage, relative activity (ratio to wild type); higher = more cleavage; co-transcriptional.
Take G22U G35C: the self-cleavage was 0.311.

Turning to C2G C20A, the self-cleavage is 0.274.

Regarding G4A G31U, the self-cleavage was 0.678.

Regarding G5U G36C, the self-cleavage is 0.32.

In the case of G31U A42G, the self-cleavage came to 0.28.

Turning to U19G A34U, the self-cleavage is 0.289.

For the variant G5C A42U, the self-cleavage amounted to 0.328.

Take G5A U28A: the self-cleavage came out at 0.364.

For the variant A42U G45C, the self-cleavage turned out to be 0.404.

Regarding A6U C38A, the self-cleavage stood at 0.511.

With C2U C38G, the self-cleavage stood at 0.976.

U13G C16U: the self-cleavage came out at 0.836.

Regarding G4C G5U, the self-cleavage was 0.418.

As to C20G C38G, the self-cleavage stood at 0.239.

In the case of U19A C30G, the self-cleavage came to 0.28.

As to G5C U13A, the self-cleavage was found to be 1.25.

For A1G C15A, the self-cleavage stood at 1.06.

In the case of G22A A37G, the self-cleavage came out at 0.285.

On to U28A C29U, for which the self-cleavage came out at 0.774.

Turning to U12C C43A, the self-cleavage was 0.278.

Consider U14G C38A, for which the self-cleavage was 0.435.

With G17A A44U, the self-cleavage was determined as 0.449.

As to U28C C43U, the self-cleavage amounted to 0.405.

For the variant A6U G8C, the self-cleavage was 0.769.

As to C15A G18U, the self-cleavage turned out to be 0.33.

On to A1C C20G, for which the self-cleavage came out at 0.354.

As to U7G A40U, the self-cleavage was determined as 0.401.

In the case of U13G G39C, the self-cleavage stood at 0.396.

As to C16G C29A, the self-cleavage came to 0.39.

For the variant G8U C11G, the self-cleavage was 1.21.

Take G5A A34G: the self-cleavage is 1.2.

On to G5C U21A, for which the self-cleavage came out at 0.307.

As to U28G G31C, the self-cleavage stood at 0.987.

In the case of A6U C29G, the self-cleavage is 0.468.

For U32G G39A, the self-cleavage turned out to be 0.362.

Take G5U G25C: the self-cleavage is 0.301.

Regarding C2U A26U, the self-cleavage amounted to 0.89.

Turning to G10C G22U, the self-cleavage came to 0.335.

As for C20U A26C, the self-cleavage was determined as 0.321.

With C3U A34G, the self-cleavage amounted to 0.91.

Turning to U13C G39C, the self-cleavage worked out at 0.471.

With C20U A41U, the self-cleavage stood at 0.37.

Regarding A1G U7G, the self-cleavage worked out at 1.4.

In the case of G4A U13C, the self-cleavage was 0.824.

U14G G17C: the self-cleavage was found to be 0.27.

For the variant U21A G35U, the self-cleavage is 0.466.

With G5U G39C, the self-cleavage was found to be 0.306.

U28G C30A: the self-cleavage was found to be 0.408.

Regarding C2A A41G, the self-cleavage was found to be 0.294.

With U7C U9C, the self-cleavage was 1.28.

On to C30A U32A, for which the self-cleavage stood at 0.797.

For C20U U24C, the self-cleavage came out at 0.508.

With U7A G18U, the self-cleavage is 0.569.

As for G17A G22A, the self-cleavage came to 0.315.

Regarding G8C U19A, the self-cleavage came to 0.295.

For the variant G8C G45U, the self-cleavage came out at 0.546.

For G4C U9G, the self-cleavage is 0.573.

As to U21G G33A, the self-cleavage is 0.704.

On to A1C A34U, for which the self-cleavage amounted to 0.384.

For U7C G17A, the self-cleavage stood at 0.32.

A6U G39U: the self-cleavage came out at 0.364.

As to C16G A26G, the self-cleavage was determined as 0.289.

Take A6G G31C: the self-cleavage amounted to 0.979.

In the case of U24G A34C, the self-cleavage turned out to be 0.823.

On to C2G A23C, for which the self-cleavage was 0.294.

U21G A37U: the self-cleavage stood at 0.417.

For U32C A41U, the self-cleavage was 0.474.

For C3A A34G, the self-cleavage was found to be 0.515.

As to G18U G27U, the self-cleavage worked out at 0.53.

In the case of C29U A41G, the self-cleavage was 0.275.

U24A A44U: the self-cleavage was 0.712.

In the case of G4U G17C, the self-cleavage amounted to 0.34.

In the case of G5U C38A, the self-cleavage came to 0.431.

On to G10A G39C, for which the self-cleavage amounted to 0.45.

As to U24C A44U, the self-cleavage came to 0.542.

For A6C C16A, the self-cleavage came out at 0.643.

With G31A G35U, the self-cleavage is 0.875.

Regarding A1C C30A, the self-cleavage is 0.4.

Take G5U G33A: the self-cleavage came to 0.913.

Consider G27U C29A, for which the self-cleavage is 0.312.

On to C2U C16U, for which the self-cleavage came to 1.07.

For the variant C11U C38U, the self-cleavage stood at 1.02.

Regarding G25U A41C, the self-cleavage turned out to be 0.316.

As to G8U G39C, the self-cleavage amounted to 0.417.

As to A1C A23G, the self-cleavage was 0.326.

With G25A U32C, the self-cleavage was found to be 0.417.

Take G33C G45C: the self-cleavage turned out to be 0.46.

Turning to G5A G10A, the self-cleavage turned out to be 1.54.

In the case of U7C G45A, the self-cleavage was found to be 0.653.

On to C38A A40G, for which the self-cleavage came out at 0.369.

Regarding C2G U28A, the self-cleavage is 0.37.

Consider G10A C43U, for which the self-cleavage turned out to be 0.605.

With U19A A23G, the self-cleavage is 0.426.

Consider C3G C43A, for which the self-cleavage was 0.318.

With A23G A40G, the self-cleavage worked out at 0.306.

In the case of C3G G45A, the self-cleavage worked out at 0.371.

G18A A40G: the self-cleavage is 0.351.

With C20U, the self-cleavage amounted to 0.697.

Consider U24A U28C, for which the self-cleavage is 1.27.

As to U19C G27A, the self-cleavage was 0.382.

Consider C20G U32C, for which the self-cleavage amounted to 0.325.

Regarding G17A A41U, the self-cleavage was determined as 0.347.

As for C30U G33U, the self-cleavage was 1.18.

For C3U C20U, the self-cleavage is 0.523.

In the case of G10U A42C, the self-cleavage came out at 0.45.

As to U28C A34G, the self-cleavage came out at 0.934.

C2U G45C: the self-cleavage amounted to 0.868.

Turning to U19G U28A, the self-cleavage was found to be 0.411.

For the variant G10U U21A, the self-cleavage was found to be 0.605.

On to U14G U32A, for which the self-cleavage worked out at 0.811.

Take C11A A40G: the self-cleavage came out at 0.346.

In the case of G4U G5C, the self-cleavage turned out to be 0.352.

G10C A34U: the self-cleavage is 0.934.

Take C11U A34U: the self-cleavage amounted to 0.724.

For A23G G25C, the self-cleavage was determined as 0.333.

For the variant G33A A37G, the self-cleavage was determined as 1.28.

For the variant A1C C16G, the self-cleavage turned out to be 0.351.

As for G33C A37C, the self-cleavage was 0.745.

For the variant G5C G27U, the self-cleavage turned out to be 0.321.

Regarding G22A G25C, the self-cleavage is 0.329.

In the case of A6C C38A, the self-cleavage came out at 0.469.

For the variant G8C G27A, the self-cleavage stood at 0.787.

With C16U U24A, the self-cleavage was 0.747.

Consider C3G U28C, for which the self-cleavage was 0.447.

C20A G33U: the self-cleavage came to 0.548.

For the variant G4A U28C, the self-cleavage amounted to 0.306.

For the variant U13A C30A, the self-cleavage was 1.31.

As for C16U G25U, the self-cleavage was 0.356.

C29G G39A: the self-cleavage stood at 0.324.

Turning to G17U G33U, the self-cleavage is 0.9.

As for C3U A44C, the self-cleavage was found to be 0.522.

As to U9A C43U, the self-cleavage turned out to be 0.337.

For the variant U9A U13G, the self-cleavage turned out to be 1.1.

On to G5U C30U, for which the self-cleavage stood at 0.967.

For U24C G33U, the self-cleavage was 0.854.

With G5C G22C, the self-cleavage is 0.243.

On to A1G C30U, for which the self-cleavage is 1.84.

For the variant A23C A44U, the self-cleavage turned out to be 0.227.

A6U G18C: the self-cleavage was determined as 0.395.

As for C20U G27U, the self-cleavage is 0.332.

For G4A A42U, the self-cleavage was determined as 0.319.

In the case of C30A G35C, the self-cleavage turned out to be 0.793.

Take U12A G33A: the self-cleavage was found to be 1.08.

On to G8A C15G, for which the self-cleavage came to 0.957.

Take A6U C15U: the self-cleavage was determined as 0.708.

As for U7A G35U, the self-cleavage turned out to be 0.751.

G31C C38U: the self-cleavage worked out at 0.94.

Turning to U24C G31C, the self-cleavage is 1.02.

Consider G4C U24G, for which the self-cleavage was determined as 0.599.

Consider A23G G36A, for which the self-cleavage was found to be 0.34.

For G36A G45A, the self-cleavage stood at 0.444.

Regarding G4U U12A, the self-cleavage is 0.547.

As for U7A G45C, the self-cleavage came to 0.566.

Take C29U G33U: the self-cleavage stood at 0.92.

Regarding U7A C29U, the self-cleavage is 0.823.

In the case of C11A A34C, the self-cleavage was 0.731.

With U14G G25A, the self-cleavage worked out at 0.315.

As for C11G A40U, the self-cleavage came to 0.273.

On to C11G U12C, for which the self-cleavage turned out to be 1.07.

Consider A1C C15A, for which the self-cleavage worked out at 0.497.

C11U U19G: the self-cleavage was 0.329.

Turning to U7G U24A, the self-cleavage came to 1.4.

As to G8A U21G, the self-cleavage came out at 0.4.

In the case of U9G U19C, the self-cleavage was 0.329.

With G10C A42G, the self-cleavage stood at 0.278.

On to G17C G18C, for which the self-cleavage was 0.347.

Regarding C16A G22U, the self-cleavage turned out to be 0.329.
